Source: PMC9437119 (The Journal of Cell Biology, 2022)
Changes are numbered by the printed parent chain. Numbers in names are those of the source. Where “and” joins values, the source holds several entries; their conditions need not be identical. Equal entries are not always repeated.

B1: myc-tagged human Mid51 (WT) (natural protein, UniProt Q9NQG6 1-463, looked up)
chain: MAGAGERKGKKDDNGIGTAIDFVLSNARLVLGVGGAAMLGIATLAVKRMYDRAISAPTSPTRLSHSGKRSWEEPNWMGSPRLLNRDMKTGLSRSLQTLPTDSSTFDTDTFCPPRPKPVARKGQVDLKKSRLRMSLQEKLLTYYRNRAAIPAGEQARAKQAAVDICAELRSFLRAKLPDMPLRDMYLSGSLYDDLQVVTADHIQLIVPLVLEQNLWSCIPGEDTIMNVPGFFLVRRENPEYFPRGSSYWDRCVVGGYLSPKTVADTFEKVVAGSINWPAIGSLLDYVIRPAPPPEALTLEVQYERDKHLFIDFLPSVTLGDTVLVAKPHRLAQYDNLWRLSLRPAETARLRALDQADSGCRSLCLKILKAICKSTPALGHLTASQLTNVILHLAQEEADWSPDMLADRFLQALRGLISYLEAGVLPSALNPKVNLFAELTPEEIDELGYTLYCSLSEPEVLLQT
notes: Mid51 (MIEF1), human, outer mitochondrial membrane protein; plasmid generated using VectorBuilder; Seen as monomer, dimer, tetramer and HMW species on the IP immunoblot; also called MIEF1; WT Mid51; source: HeLa cells, transfected for 24 h, in lysate
B2: myc-tagged human Mid51(Y240N) (natural protein, UniProt Q9NQG6 1-463, looked up)
chain: B1 chain with Y240N
notes: Mid51 (MIEF1), human, variant Y240N linked to dominant optic atrophy; plasmid generated using VectorBuilder; source: HeLa cells, transfected for 24 h, in lysate

Biological target: the molecule itself
Experiment: SDS-resistant oligomers on SDS-PAGE immunoblot of the immunoprecipitate; anti-myc immunoprecipitate of the Mid51/Fis1 complex from HeLa lysate heated 20 min at 55°C, 4-20% Tris-Glycine SDS-PAGE; SDS-resistant complexes detected with anti-myc (Mid51 species) or anti-Flag (Fis1 species); species normalized to monomer

Protein	stoichiometry N
B1	2 and 4
B2	2 and 4
